Source: patent US20150344570A1 (published 2015)

Tests used:
[1] = target: T1, FcγRIIb extracellular domain with C-terminal His tag (human, UniProt P31994 43-217); assay: SPR (Biacore), antibody captured via antigen peptide, FcγR as analyte; relative binding
T1 construct: extracellular domain; also called FcgRIIb; 2b
T1 sequence (looked up): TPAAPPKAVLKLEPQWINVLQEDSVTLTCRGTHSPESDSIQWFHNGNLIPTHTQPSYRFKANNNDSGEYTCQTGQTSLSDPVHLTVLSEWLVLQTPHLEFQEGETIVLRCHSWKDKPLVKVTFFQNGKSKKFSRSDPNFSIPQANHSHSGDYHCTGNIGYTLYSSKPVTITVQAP
Description: (§1) The heterodimerized antibodies He Abs in which one of the H chains was introduced with an alteration were assayed for their binding activities to each activating FcγR and inhibitory FcγR according to the method described in Example 4. […] The activating FcγRs in FIGS. 26, 27, 28, and 29 are FcγRIa, FcγRIIa (R), FcγRIIa (H), and FcγRIIIa, respectively.
(§2) Analysis of interaction between objective antibody and the FcγR was carried out using Biacore T100 (GE Healthcare). HBS-EP+ (GE Healthcare) was used as the running buffer, and the measurement temperature was set to 25° C. Chips produced by immobilizing the antigen peptide by the amine coupling method to a Series S Sencor Chip CM5 (GE Healthcare), or alternatively, chips produced by allowing preliminarily biotinylated antigen peptides to interact with and immobilize onto a Series S Sensor Chip SA (certified) (GE Healthcare) were used. Antibodies of interest were captured onto an antigen peptide-immobilized chip, and allowed to interact to each FcγR diluted with running buffer. To regenerate and repeatedly use the chip, the antibodies captured on the chip were washed off by reacting 10 mM glycine-HCl, pH 1.5.

[2] = target: T2, FcγRIa extracellular domain with C-terminal His tag (human, UniProt P12314 16-292); assay: as above
T2 construct: extracellular domain; also called FcgRI; 1a
Description: as §1, §2

[3] = target: T2, FcγRIa extracellular domain with …; assay: SPR (Biacore); He/Con_1a divided by He/Con_2b (FcγRIa binding over FcγRIIb binding)
Description: as §1, §2

T2 sequence (P12314 16-292): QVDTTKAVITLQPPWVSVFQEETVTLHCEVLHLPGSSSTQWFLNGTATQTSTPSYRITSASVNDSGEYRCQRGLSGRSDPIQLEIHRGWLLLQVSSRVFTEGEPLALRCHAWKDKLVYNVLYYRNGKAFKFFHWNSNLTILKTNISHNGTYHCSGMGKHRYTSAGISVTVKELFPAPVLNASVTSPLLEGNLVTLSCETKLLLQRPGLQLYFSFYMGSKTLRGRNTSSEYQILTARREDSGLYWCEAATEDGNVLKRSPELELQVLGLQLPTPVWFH

B1: GpH7-A5/GpH7-B3 variant Q295_11K/GpL16-k0 (antibody, human IgG1, kappa)
heavy 1: not shown
heavy 2: not shown
light: DIVMTQSPLSLPVTPGEPASISCQASESLVHSNRNTYLHWYLQKPGQSPQLLIYKVSNRFSGVPDRFSGSGSGTDFTLKISRVEAEDVGVYYCSQNTHVPPTFGQGTKVEIERTVAAPSVFIFPPSDEQLKSGTASVVCLLNNFYPREAKVQWKVDNALQSGNSQESVTEQDSKDSTYSLSSTLTLSKADYEKHKVYACEVTHQGLSSPVTKSFNRGEC
notes: Heterodimerized anti-glypican-3 IgG1; alteration only in the GpH7-B3 chain, EU numbering; also called He Ab
[1]
  He/Con_2b: 70.4 % of GpH7-A5/GpH7-B3/GpL16-k0 (=100)
[2]
  He/Con_1a: 101 % of GpH7-A5/GpH7-B3/GpL16-k0 (=100)
[3]
  He_1a/2b (Ia/IIb): 1.44 ratio

B2: GpH7-A5/GpH7-B3 variant S298_04F/GpL16-k0 (antibody, human IgG1, kappa)
heavy 1: not shown
heavy 2: not shown
light: DIVMTQSPLSLPVTPGEPASISCQASESLVHSNRNTYLHWYLQKPGQSPQLLIYKVSNRFSGVPDRFSGSGSGTDFTLKISRVEAEDVGVYYCSQNTHVPPTFGQGTKVEIERTVAAPSVFIFPPSDEQLKSGTASVVCLLNNFYPREAKVQWKVDNALQSGNSQESVTEQDSKDSTYSLSSTLTLSKADYEKHKVYACEVTHQGLSSPVTKSFNRGEC
notes: as for B1
[1]
  He/Con_2b: 65.4 % of GpH7-A5/GpH7-B3/GpL16-k0 (=100)
[2]
  He/Con_1a: 109 % of GpH7-A5/GpH7-B3/GpL16-k0 (=100)
[3]
  He_1a/2b (Ia/IIb): 1.67 ratio

B3: GpH7-A5/GpH7-B3 variant S298_02A/GpL16-k0 (antibody, human IgG1, kappa)
heavy 1: not shown
heavy 2: not shown
light: DIVMTQSPLSLPVTPGEPASISCQASESLVHSNRNTYLHWYLQKPGQSPQLLIYKVSNRFSGVPDRFSGSGSGTDFTLKISRVEAEDVGVYYCSQNTHVPPTFGQGTKVEIERTVAAPSVFIFPPSDEQLKSGTASVVCLLNNFYPREAKVQWKVDNALQSGNSQESVTEQDSKDSTYSLSSTLTLSKADYEKHKVYACEVTHQGLSSPVTKSFNRGEC
notes: Heterodimerized anti-glypican-3 IgG1; S298A (EU numbering) only in the GpH7-B3 chain; also called He Ab; GpH7-A5/GpH7-B3-15-02A/GpL16-k0
[1]
  He/Con_2b: 73.4 % of GpH7-A5/GpH7-B3/GpL16-k0 (=100)
[2]
  He/Con_1a: 107 % of GpH7-A5/GpH7-B3/GpL16-k0 (=100)
[3]
  He_1a/2b (Ia/IIb): 1.45 ratio

B4: GpH7-A5/GpH7-B3 variant Q295_14T/GpL16-k0 (antibody, human IgG1, kappa)
heavy 1: not shown
heavy 2: not shown
light: DIVMTQSPLSLPVTPGEPASISCQASESLVHSNRNTYLHWYLQKPGQSPQLLIYKVSNRFSGVPDRFSGSGSGTDFTLKISRVEAEDVGVYYCSQNTHVPPTFGQGTKVEIERTVAAPSVFIFPPSDEQLKSGTASVVCLLNNFYPREAKVQWKVDNALQSGNSQESVTEQDSKDSTYSLSSTLTLSKADYEKHKVYACEVTHQGLSSPVTKSFNRGEC
notes: as for B1
[1]
  He/Con_2b: 66.8 % of GpH7-A5/GpH7-B3/GpL16-k0 (=100)
[2]
  He/Con_1a: 103 % of GpH7-A5/GpH7-B3/GpL16-k0 (=100)
[3]
  He_1a/2b (Ia/IIb): 1.54 ratio

B5: GpH7-A5/GpH7-B3 variant Y296_02A/GpL16-k0 (antibody, human IgG1, kappa)
heavy 1: not shown
heavy 2: not shown
light: DIVMTQSPLSLPVTPGEPASISCQASESLVHSNRNTYLHWYLQKPGQSPQLLIYKVSNRFSGVPDRFSGSGSGTDFTLKISRVEAEDVGVYYCSQNTHVPPTFGQGTKVEIERTVAAPSVFIFPPSDEQLKSGTASVVCLLNNFYPREAKVQWKVDNALQSGNSQESVTEQDSKDSTYSLSSTLTLSKADYEKHKVYACEVTHQGLSSPVTKSFNRGEC
notes: as for B1
[1]
  He/Con_2b: 82 % of GpH7-A5/GpH7-B3/GpL16-k0 (=100)
[2]
  He/Con_1a: 103 % of GpH7-A5/GpH7-B3/GpL16-k0 (=100)
[3]
  He_1a/2b (Ia/IIb): 1.26 ratio

B6: GpH7-A5/GpH7-B3 variant S298_01G/GpL16-k0 (antibody, human IgG1, kappa)
heavy 1: not shown
heavy 2: not shown
light: DIVMTQSPLSLPVTPGEPASISCQASESLVHSNRNTYLHWYLQKPGQSPQLLIYKVSNRFSGVPDRFSGSGSGTDFTLKISRVEAEDVGVYYCSQNTHVPPTFGQGTKVEIERTVAAPSVFIFPPSDEQLKSGTASVVCLLNNFYPREAKVQWKVDNALQSGNSQESVTEQDSKDSTYSLSSTLTLSKADYEKHKVYACEVTHQGLSSPVTKSFNRGEC
notes: as for B1
[1]
  He/Con_2b: 80.1 % of GpH7-A5/GpH7-B3/GpL16-k0 (=100)
[2]
  He/Con_1a: 104 % of GpH7-A5/GpH7-B3/GpL16-k0 (=100)
[3]
  He_1a/2b (Ia/IIb): 1.29 ratio

B7: GpH7-A5/GpH7-B3 variant Y296_03V/GpL16-k0 (antibody, human IgG1, kappa)
heavy 1: not shown
heavy 2: not shown
light: DIVMTQSPLSLPVTPGEPASISCQASESLVHSNRNTYLHWYLQKPGQSPQLLIYKVSNRFSGVPDRFSGSGSGTDFTLKISRVEAEDVGVYYCSQNTHVPPTFGQGTKVEIERTVAAPSVFIFPPSDEQLKSGTASVVCLLNNFYPREAKVQWKVDNALQSGNSQESVTEQDSKDSTYSLSSTLTLSKADYEKHKVYACEVTHQGLSSPVTKSFNRGEC
notes: as for B1
[1]
  He/Con_2b: 79.3 % of GpH7-A5/GpH7-B3/GpL16-k0 (=100)
[2]
  He/Con_1a: 104 % of GpH7-A5/GpH7-B3/GpL16-k0 (=100)
[3]
  He_1a/2b (Ia/IIb): 1.31 ratio

B8: GpH7-A5/GpH7-B3 variant Q295_18N/GpL16-k0 (antibody, human IgG1, kappa)
heavy 1: not shown
heavy 2: not shown
light: DIVMTQSPLSLPVTPGEPASISCQASESLVHSNRNTYLHWYLQKPGQSPQLLIYKVSNRFSGVPDRFSGSGSGTDFTLKISRVEAEDVGVYYCSQNTHVPPTFGQGTKVEIERTVAAPSVFIFPPSDEQLKSGTASVVCLLNNFYPREAKVQWKVDNALQSGNSQESVTEQDSKDSTYSLSSTLTLSKADYEKHKVYACEVTHQGLSSPVTKSFNRGEC
notes: as for B1
[1]
  He/Con_2b: 64.9 % of GpH7-A5/GpH7-B3/GpL16-k0 (=100)
[2]
  He/Con_1a: 102 % of GpH7-A5/GpH7-B3/GpL16-k0 (=100)
[3]
  He_1a/2b (Ia/IIb): 1.58 ratio
